Percent of parent, percent of parent (% of 12QL control) and % loss of binding (co-precipitated Gα12 normalized for starting material, against non-mutated Gα12 Q229L) data for seven molecules are collected here from article PMC5345129.

Assay [1] concerns the target myc-tagged, constitutively active Gα12 (GTPase-deficient Q229L mutant) (UniProt P27600). Put plainly: GST co-precipitation (pull-down), immunoblot bands quantified with ImageJ. The conditions noted are these: parent: 100; read off a plot.
Assay [2] concerns the target GST-fusion of the 257-amino acid C-terminus of AKAP-Lbc. The assay can be described thus: GST co-precipitation (pull-down) from HEK293 cell extracts, immunoblot bands quantified with ImageJ. The conditions noted are these: parent: est. 100; read off a plot.
The target of assay [3] is GST-fusion of the 257-amino acid region of p114RhoGEF corresponding to the Gα12-binding region of AKAP-Lbc. The assay is described as above. The conditions noted are these: parent: est. 100; read off a plot.
Assay [4] addresses GST-fusion of the RH domain of LARG (leukemia-associated RhoGEF). Described as above. The conditions noted are these: parent: est. 100; read off a plot.
The target of assay [5] is GST-fusion of the 257-amino acid C-terminus of AKAP-Lbc (human). The assay can be described thus: pull-down; GST fusion proteins bound to Glutathione Sepharose 4B; Gα variants from high-speed supernatants of transfected HEK293 cells, detergent diluted to 0.05% polyoxyethylene-10-lauryl ether; 50 mM HEPES pH 7.5, 1 mM EDTA, 3 mM dithiothreitol, 10 mM MgSO4; 2 h at 4°C; three washes; immunoblot (anti-Gα12, anti-myc or anti-EGFP); 5% of the extract kept as load.

Assay [6] deals with T1, GST-fusion of the 257-amino acid region of p114RhoGEF corresponding to the Gα12-binding region of AKAP-Lbc (human).
T1 sequence (Q6ZSZ5 whole entry, looked up): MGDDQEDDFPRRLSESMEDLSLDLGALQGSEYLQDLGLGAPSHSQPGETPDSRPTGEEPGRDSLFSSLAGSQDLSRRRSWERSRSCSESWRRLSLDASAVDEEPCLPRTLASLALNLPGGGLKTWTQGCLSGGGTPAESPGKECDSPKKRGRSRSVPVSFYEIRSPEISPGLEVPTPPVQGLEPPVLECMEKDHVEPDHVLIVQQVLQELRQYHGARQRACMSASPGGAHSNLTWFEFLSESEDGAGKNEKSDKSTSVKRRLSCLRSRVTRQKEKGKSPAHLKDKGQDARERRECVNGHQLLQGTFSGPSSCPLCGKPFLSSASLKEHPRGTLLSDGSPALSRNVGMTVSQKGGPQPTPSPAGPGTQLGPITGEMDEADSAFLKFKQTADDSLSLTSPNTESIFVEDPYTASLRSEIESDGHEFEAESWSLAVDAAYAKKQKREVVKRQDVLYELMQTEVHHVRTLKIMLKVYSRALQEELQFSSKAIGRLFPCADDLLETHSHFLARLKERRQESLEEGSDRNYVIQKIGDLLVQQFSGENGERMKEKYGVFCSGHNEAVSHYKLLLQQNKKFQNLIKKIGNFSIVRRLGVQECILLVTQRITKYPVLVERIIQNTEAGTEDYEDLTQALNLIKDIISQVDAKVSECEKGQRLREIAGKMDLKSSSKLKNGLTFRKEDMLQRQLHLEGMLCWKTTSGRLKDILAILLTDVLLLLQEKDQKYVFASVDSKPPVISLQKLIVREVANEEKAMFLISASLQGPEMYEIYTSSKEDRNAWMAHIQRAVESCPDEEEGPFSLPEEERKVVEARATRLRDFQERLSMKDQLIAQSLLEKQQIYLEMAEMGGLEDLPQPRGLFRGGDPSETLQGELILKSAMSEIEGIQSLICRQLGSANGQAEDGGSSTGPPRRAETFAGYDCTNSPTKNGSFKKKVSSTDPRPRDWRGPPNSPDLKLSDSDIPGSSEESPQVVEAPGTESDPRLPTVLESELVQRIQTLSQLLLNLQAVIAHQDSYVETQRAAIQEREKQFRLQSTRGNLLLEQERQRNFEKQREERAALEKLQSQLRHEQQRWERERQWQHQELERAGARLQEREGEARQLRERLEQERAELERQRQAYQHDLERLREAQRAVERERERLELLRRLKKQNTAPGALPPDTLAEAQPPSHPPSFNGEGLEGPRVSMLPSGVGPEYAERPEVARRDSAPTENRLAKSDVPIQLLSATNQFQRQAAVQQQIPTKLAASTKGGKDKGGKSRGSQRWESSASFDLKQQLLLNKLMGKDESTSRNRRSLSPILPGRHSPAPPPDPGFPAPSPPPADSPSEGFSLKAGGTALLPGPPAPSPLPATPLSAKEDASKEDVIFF
The description is as above.

Sequence of GST-fusion of the 257-amino acid C-terminus of AKAP-Lbc (human) (Q12802 whole entry, the tested form may be a part): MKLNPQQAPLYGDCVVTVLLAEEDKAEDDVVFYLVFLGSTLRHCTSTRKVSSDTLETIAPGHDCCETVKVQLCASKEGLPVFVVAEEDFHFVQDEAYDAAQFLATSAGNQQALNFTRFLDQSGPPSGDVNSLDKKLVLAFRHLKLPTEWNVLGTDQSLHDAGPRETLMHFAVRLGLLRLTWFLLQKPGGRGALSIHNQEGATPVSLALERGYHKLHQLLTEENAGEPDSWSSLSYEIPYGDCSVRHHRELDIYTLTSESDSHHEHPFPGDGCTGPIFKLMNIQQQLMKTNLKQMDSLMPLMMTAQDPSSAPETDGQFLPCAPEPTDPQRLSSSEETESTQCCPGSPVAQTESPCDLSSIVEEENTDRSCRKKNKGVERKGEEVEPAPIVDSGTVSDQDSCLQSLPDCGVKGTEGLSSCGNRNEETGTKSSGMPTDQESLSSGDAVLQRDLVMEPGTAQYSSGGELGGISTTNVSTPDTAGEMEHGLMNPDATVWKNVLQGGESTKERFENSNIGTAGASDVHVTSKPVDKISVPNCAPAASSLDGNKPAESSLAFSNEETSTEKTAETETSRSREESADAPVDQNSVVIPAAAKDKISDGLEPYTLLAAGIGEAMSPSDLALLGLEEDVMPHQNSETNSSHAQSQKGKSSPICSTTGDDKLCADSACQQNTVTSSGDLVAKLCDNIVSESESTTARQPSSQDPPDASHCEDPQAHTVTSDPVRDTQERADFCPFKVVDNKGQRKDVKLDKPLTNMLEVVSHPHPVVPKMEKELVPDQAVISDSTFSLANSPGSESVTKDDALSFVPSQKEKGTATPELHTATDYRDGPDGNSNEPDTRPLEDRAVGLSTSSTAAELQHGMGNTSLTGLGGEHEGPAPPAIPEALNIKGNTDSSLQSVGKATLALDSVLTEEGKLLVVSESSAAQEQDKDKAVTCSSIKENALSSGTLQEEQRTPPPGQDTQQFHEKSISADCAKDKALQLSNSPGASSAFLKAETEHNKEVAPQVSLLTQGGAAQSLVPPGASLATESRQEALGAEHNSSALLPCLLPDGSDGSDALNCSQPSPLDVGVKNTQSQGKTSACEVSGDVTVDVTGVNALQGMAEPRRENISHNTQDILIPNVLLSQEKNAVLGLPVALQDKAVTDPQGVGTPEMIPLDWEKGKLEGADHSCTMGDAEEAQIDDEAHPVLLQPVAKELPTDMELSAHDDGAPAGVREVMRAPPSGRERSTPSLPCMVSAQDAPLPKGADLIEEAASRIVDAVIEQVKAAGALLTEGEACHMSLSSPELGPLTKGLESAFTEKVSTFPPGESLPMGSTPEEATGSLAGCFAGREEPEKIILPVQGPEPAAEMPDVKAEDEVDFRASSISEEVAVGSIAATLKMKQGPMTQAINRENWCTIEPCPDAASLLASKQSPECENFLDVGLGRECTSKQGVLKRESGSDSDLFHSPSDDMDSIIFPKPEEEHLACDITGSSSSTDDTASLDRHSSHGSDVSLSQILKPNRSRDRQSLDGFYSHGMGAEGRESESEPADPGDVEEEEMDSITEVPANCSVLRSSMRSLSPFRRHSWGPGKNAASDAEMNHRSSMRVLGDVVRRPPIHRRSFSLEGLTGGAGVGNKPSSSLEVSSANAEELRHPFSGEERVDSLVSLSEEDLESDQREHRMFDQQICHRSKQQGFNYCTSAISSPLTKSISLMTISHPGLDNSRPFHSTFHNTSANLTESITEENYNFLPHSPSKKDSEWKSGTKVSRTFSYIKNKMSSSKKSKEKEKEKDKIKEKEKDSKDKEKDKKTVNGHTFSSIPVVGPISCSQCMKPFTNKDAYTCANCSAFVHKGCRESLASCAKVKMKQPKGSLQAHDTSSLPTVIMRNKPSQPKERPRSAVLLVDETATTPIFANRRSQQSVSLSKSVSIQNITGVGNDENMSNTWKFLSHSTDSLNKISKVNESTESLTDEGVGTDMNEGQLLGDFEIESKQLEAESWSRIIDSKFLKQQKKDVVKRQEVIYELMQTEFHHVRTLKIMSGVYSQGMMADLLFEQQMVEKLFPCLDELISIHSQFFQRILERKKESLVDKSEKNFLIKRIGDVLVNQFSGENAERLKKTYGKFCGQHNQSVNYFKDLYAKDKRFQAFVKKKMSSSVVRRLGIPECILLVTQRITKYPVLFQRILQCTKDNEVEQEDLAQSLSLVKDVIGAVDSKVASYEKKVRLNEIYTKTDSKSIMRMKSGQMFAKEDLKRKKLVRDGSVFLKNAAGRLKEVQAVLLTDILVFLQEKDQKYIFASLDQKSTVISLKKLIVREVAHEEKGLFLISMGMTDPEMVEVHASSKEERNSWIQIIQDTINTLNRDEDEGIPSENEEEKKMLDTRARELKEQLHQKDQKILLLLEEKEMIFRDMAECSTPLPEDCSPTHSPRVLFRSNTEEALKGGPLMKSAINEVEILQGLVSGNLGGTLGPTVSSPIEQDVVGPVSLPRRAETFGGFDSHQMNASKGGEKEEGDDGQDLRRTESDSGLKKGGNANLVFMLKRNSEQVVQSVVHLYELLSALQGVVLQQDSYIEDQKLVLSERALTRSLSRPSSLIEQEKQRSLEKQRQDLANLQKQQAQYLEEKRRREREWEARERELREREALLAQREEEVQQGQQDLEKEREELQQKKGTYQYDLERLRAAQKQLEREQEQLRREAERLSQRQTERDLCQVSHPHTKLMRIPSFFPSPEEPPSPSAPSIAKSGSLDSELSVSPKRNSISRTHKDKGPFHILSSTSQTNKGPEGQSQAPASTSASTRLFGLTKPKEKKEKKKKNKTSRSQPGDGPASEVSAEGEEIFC

Turning to “GST-fusion of the 257-amino acid C-terminus of AKAP-Lbc E2576R”, the percent of parent in assay [1] is 29 % of control. With “myc-tagged, constitutively active Gα12 (GTPase-deficient Q229L mutant) (from UniProt P27600) Δ244-249 (sextet Asn-Ala-Ala-Ile-Arg-Ser in place of native residues 244-249)”, the percent of parent (% of 12QL control) was found to be 105 in assay [2], 95 in assay [3] and 16 in assay [4]. Consider “GST-fusion of the 257-amino acid region of p114RhoGEF corresponding to the Gα12-binding region of AKAP-Lbc E789R”, for which the percent of parent in assay [1] is 37 % of control. The same measure, in the same setting: in the case of “GST-fusion of the 257-amino acid C-terminus of AKAP-Lbc E2670R” it was 33 % of control. On the same count and under the same terms, the result for “GST-fusion of the 257-amino acid region of p114RhoGEF corresponding to the Gα12-binding region of AKAP-Lbc E695R” reads 42 % of control. Consider “myc-tagged, constitutively active Gα12 (GTPase-deficient Q229L mutant) (from UniProt P27600) C11A”, for which the percent of parent (% of 12QL control) in assay [4] was 92.

B1: myc-tagged, constitutively active Gα12 (Q229L) with C11A substitution (natural protein)
chain: MSGVVRTLSRALLPAEAGARERRAGAARDAEREARRRSRDIDALLARERRAVRRLVKILLLGAGESGKSTFLKQMRIIHGREFDQKALLEFRDTIFDNILKGSRVLVDARDKLGIPWQHSENEKHGMFLMAFENKAGLPVEPATFQLYVPALSALWRDSGIREAFSRRSEFQLGESVKYFLDNLDRIGQLNYFPSKQDILLARKATKGIVEHDFVIKKIPFKMVDVGGLRSQRQKWFQCFDGITSILFMVSSSEYDQVLMEDRRTNRLVESMNIFETIVNNKLFFNVSIILFLNKMDLLVEKVKSVSIKKHFPDFKGDPHRLEDVQRYLVQCFDRKRRNRSKPLFHHFTTAIDTENIRFVFHAVKDTILQENLKDIMLQ
Consider B1, for which the % loss of binding (co-precipitated Gα12 normalized for starting material, against non-mutated Gα12 Q229L) in assay [5] is 60%; in assay [6], 72%.
